According to PMC11393876 (Cancers, 2024):

Assays:
Conditions in all cases: both partners purified
[1] = biological target: T1, human CTLA-4 (Homo sapiens, UniProt P16410); assay: ELISA; direct binding ELISA; antigens coated overnight, blocked with 1% BSA 2 h; P1801 incubated at 25 °C for 1 h; detected with peroxidase goat anti-hIgG Fc
T1 construct: CTLA-4, human; source: bought: Sino Biological (11159-H08H)

[2] = biological target: T2, mouse PD-1 (Mus musculus, UniProt Q02242); assay: as above
T2 construct: PD-1, mouse; source: bought: Sino Biological (50124-M08H)
T2 sequence (Q02242 25-169): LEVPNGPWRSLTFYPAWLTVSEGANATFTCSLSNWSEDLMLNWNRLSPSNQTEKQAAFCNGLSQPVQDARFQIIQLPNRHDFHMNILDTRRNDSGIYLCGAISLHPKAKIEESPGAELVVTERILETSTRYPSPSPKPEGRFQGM

[3] = biological target: T3, human PD-1 (Homo sapiens, UniProt Q15116); assay: as above
T3 construct: programmed cell death 1 (PD-1), human; also called PD-1/His antigen; human PD-1 proteins; source: bought: Sino Biological (HPLC-10377-H08H) for the ELISA
T3 sequence (Q15116 25-170): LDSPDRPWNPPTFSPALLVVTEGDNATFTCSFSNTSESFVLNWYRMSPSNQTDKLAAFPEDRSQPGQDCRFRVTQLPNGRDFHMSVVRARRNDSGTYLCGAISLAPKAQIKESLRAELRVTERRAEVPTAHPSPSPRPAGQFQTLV

[4] = biological target: T4, human CD28 (Homo sapiens, UniProt P10747); assay: as above
T4 construct: CD28, human; source: bought: Sino Biological (11524-HCCH)
T4 sequence (P10747 19-152): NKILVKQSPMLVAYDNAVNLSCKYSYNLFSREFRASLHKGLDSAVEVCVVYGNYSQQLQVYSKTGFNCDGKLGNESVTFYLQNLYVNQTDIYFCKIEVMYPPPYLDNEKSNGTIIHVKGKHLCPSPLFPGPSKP

[5] = biological target: T5, cynomolgus PD-1 (Macaca fascicularis (cynomolgus), UniProt B0LAJ3); assay: as above
T5 construct: PD-1, cynomolgus monkey, GenBank NP_001271065.1; source: bought: Sino Biological (90311-C08H)

[6] = biological target: T6, human PD-L1 (human, UniProt Q9NZQ7); assay: as above
T6 construct: programmed death-ligand 1 (PD-L1), human; also called programmed death-ligand 1; source: bought: Sino Biological (10084-H08H)
T6 sequence (Q9NZQ7 19-238): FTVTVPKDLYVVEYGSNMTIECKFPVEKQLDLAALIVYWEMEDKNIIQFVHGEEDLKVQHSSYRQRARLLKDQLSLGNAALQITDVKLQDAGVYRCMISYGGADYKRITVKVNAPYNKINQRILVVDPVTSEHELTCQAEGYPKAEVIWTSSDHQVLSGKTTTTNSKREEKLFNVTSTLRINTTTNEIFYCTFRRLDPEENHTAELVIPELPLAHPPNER

[7] = biological target: T7, human PD-L2 (human, UniProt Q9BQ51); assay: as above
T7 construct: PD-L2, human; source: bought: Sino Biological (10292-H08H)
T7 sequence (Q9BQ51 20-220): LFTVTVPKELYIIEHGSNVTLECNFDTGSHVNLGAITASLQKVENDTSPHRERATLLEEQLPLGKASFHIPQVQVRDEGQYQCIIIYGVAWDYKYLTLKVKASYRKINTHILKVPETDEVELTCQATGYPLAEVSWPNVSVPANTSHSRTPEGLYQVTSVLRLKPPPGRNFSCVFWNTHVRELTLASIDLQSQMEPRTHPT

[8] = biological target: T8, Biotin-hPD-1-mIgG Fc (human, UniProt Q15116, biotin); assay: ELISA; competitive ELISA; human PD-L2 coated; Biotin-hPD-1-mIgG Fc at 0.025 μg/mL as binder; serial dilutions of P1801 from 0.5 μg/mL as competitor; 25 °C, 2 h
T8 construct: PD-1, human; also called hPD-1-mFc; source: PharmaEssentia, purified fusion protein
T8 sequence (Q15116 25-170): as the sequence (Q15116 25-170) above

[9] = biological target: T3, human PD-1; assay: SPR; P1801 (2 µg/mL) captured on the surface; human PD-1 proteins injected; 25 °C; HBS-EP (10 mM HEPES, 150 mM NaCl, 3 mM EDTA, 0.05% Tween 20, pH 7.4)
[10] = biological target: T8, Biotin-hPD-1-mIgG Fc; assay: ELISA; competitive ELISA; human PD-L1 coated; Biotin-hPD-1-mIgG Fc at 0.025 μg/mL as binder; serial dilutions of P1801 from 0.5 μg/mL as competitor; 25 °C, 2 h

T1 sequence (P16410 36-161): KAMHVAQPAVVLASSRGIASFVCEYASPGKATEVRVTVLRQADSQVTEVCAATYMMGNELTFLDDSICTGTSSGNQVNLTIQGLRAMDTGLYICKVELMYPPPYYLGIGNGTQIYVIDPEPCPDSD

B1: P1801 (antibody, V domains shown)
VH: EVQLVESGGGLVQPGGSLRLSCAASGFTFSSYDMSWVRQAPGKGLEWVATITGGGSYTYYPDSVKGRFTISRDNAKNSLYLQMNSLRAEDTAVYYCASPYLNYFDYWGQGTLVTVSS
VL: EIVLTQSPATLSLSPGERATLSCRASQSISNNLHWYQQKPGQAPRLLIYYASQSISGIPARFSGSGSGTDFTLTISSLEPEDFAVYYCQQSNSWPLTFGQGTKLEIK
notes: 464 residues; mouse CDR1-3 in a human IgG4 framework with the S228P mutation; kappa light chain, 234 residues; mouse CDRs in a human framework; IgG4 kappa, S228P; humanized from murine clone PD-1RB-M59; The printed lengths (464 and 234 residues) may include signal peptides; Molecular weight 146,799 Da; also called anti-human PD-1 IgG4 humanized monoclonal antibody; source: CHO cell expression …
In the case of B1, the binding result [1] is reported as “no binding”, the binding result [2] is reported as “no binding” and the EC50 [3] is reported as 0.57 nM. The binding result [4] was “no binding”, the EC50 [5] was 0.44 nM and the binding result [6] was “no binding”. For the same binder, the binding result [7] was “no binding”, the IC50 [8] was 0.9 nM and the Kd [9] was 2.5 nM. For the same binder, the IC50 [10] was 0.57 nM.
